# According to the DeepSol protein solubility set:
# Assay: soluble on expression in E. coli; label from the status in PepcDB or PDB records
row,Sequence,soluble on expression in E. coli
1,MGSDKIHHHHHHMQALRKCYGIVGADDIVSEMKTWQVTSNDPHEGLTKWADGLDEAFVQLEPVATTGDGFYGHIQQTSTAELDVSVVTSTGHEIRRLDRHIRHRSADLLYVNILGRGRSEVSQRDTVVAAPMDVSIVDPRAPYSIRQEAPFQLVSIAVPPDWVEREARHCHFLSRTAAGRELSSVVWGLAKMLLAIKPDQDGLATSLAQQIHHSLALLPEMAGSDATPRVSVAMLQSYVQRHFSQPDLRAEHLARQFGISVRRVHQLFEPTGHTVSEFINDLRLARAADCLGDAALARRTISEIAWQVGYSDPSYFTRRFKRRYGCSPRAYRAAHHPAPIARLS,not soluble
2,MTITRQDAWTQDEDLLLAEVVLRHIREGGTQLSAFEEVGRALTRTAAACGFRWNSYVRKQYQSGIELAKKQRKELRKQIGVHSVNMPNSMKQTASASSEGKRDLSIQDVIQFLEQFKETPSAQEFQLEREKLKEQIQSLQKELEDLRSENQTLRNQLEMTEEDYKALIDIMDRARKMVVSKEDGRMKKAAQETLEHHHHHH,not soluble
3,MPHVICEPCIGVKDQSCVEVCPVECIYDGGDQFYIHPEECIDCGACVPACPVNAIYPEEDVPEQWKSYIEKNRKLAGLE,soluble
4,LSLLGVGAASLYVSDSPQPKMAQSQHDTTIDLSSQKDFFEYSLSGLGEHSLEEIQENIEESISQQNSLGIDVELFQTYLAYKRALSKLEPLEDTTLSLSQLQRLNEAILNLQLEYFNDQQISQLFDEENRLRQLAIEKLVIKTYEQDSDSQQLLLNQALSEQPEYIQKSERNNALTRQLDQTELLSSQDKYLARVELVGEEGAQRLQKLDEQRATFEIELTNYLEKRADILNDEFLDSEQKQLEIANLRKQSFETTQWRRIEALERIHDS,not soluble
5,MLSPIENERSEIPSPEKLKLVEEPSDDESKFSNYDSDDWETLSDDLRLLDEEWGKSGGFDVDFSKVRHRFGRGAVHLDDDNMVSEPHETNRDLLNRLSNMAISFYNDKTGIKLELVKVLRANFHPSAAITLYITFEANDPSDGNQTKRYQAVVRYLSFDIEVCSCNPEPSSS,soluble
6,MGKRFSSFQAAQIRIARPTGQLDEIIRFYEEGLCLKRIGEFSQHNGYDGVMFGLPHADYHLEFTQYEGGSTAPVPHPDSLLVFYVPNAVELAAITSKLKHMGYQEVESENPYWSNGGVTIEDPDGWRIVFMNSKGISGK,soluble
7,LKFPKVAVVGSRACSKQGAKSVEKVIQGLENELVIVSGLAKGIDTAAHMAALQNGGKTIAVIGTGLDVFYPKANKRLQDYIGNDHLVLSEYGPGEQPLKFHFPARNRIIAGLCRGVIVAEAKMRSGSLITCERAMEEGRDVFAIPGSILDGLSDGCHHLIQEGAKLVTSGQDVLAEFEF,not soluble
8,MGSDKIHHHHHHMSKAKRLMELMMVINRKRRFTVKELAEEFSVSSRTILRDLQELSELGVPLYSEVGPHGGYEVLNERVLPPIAFTEEEAVAIFFTVHALRHFSALPFQAESSSVNHKFYSYMPEDVKERIDQLKNRFDFETPMRPLATPYLPTLLDAAIKQNVVSIEYETSQEKTKREIQPIGVYARDGFWYCPSYCFLREDMRLFRCDRITYVTEQTTNNPLNFRHVHLGNWQSYMKQERNVLDFYVELSQDGVQRCVAEQWLKPHLHIRQDGSGWLEGPFPESEVPYFSYYFIGFGHDATVKQPVQLVTLIKKSLRELLSKYNGEKEGLPQKSF,not soluble
9,SNATIYRMVDLPVIQPRLCTHARWPAPVYGLLVDPSLPSNPQWQNGRVHVDGTLLGTTPISGSWVSCFAAEAAYEFQSGTGEVATFTLIEQDGSAYVPGDRAAPLGYPDFSGQLEIEVQTETTKTGDKLKVTTFEMILGPTTNADQAPYQGRVFASVTAAASLDLVDGRVRAVPRSIYGFQDTIPEYNDGLLVPLAPPIGPFLPGEVLLRFRTYMRQIDTADAAAEAIDCALPQEFVSWFASNAFTVQSEALLLRYRNTLTGQLLFECKLYNEGYIALSYSGSGPLTFPTDGIFEVVSWVPRLYQLASVGSLATGRMLKQ,soluble
10,MAHHHHHHMVSVDTSTRRFLEMFCDFDAKRCKLCNETFLQWHIHANGIPHAGREGMLLELVRPYCGTPDELIEMWWQRLNSCAAFHRIPGLSHDNPHERKRRLLYLLKVLKDRGILVETFNVSDNQSTNSARSWEFERLEFVGDNVVKYVLNNIISCAFPPHEGGTKGKMTCFQFVMDGNDGLARGYDHLDLQQLASSPRVVSKFKSDIVETLFAELQMYLWSTQHDIGTCPLVFPFTKDIYTLRALVQHVLYELGIELFLYHIRHINGMLQRVMRENHLQFVKADSALKPRAGARTGSLGVSTRRGDWSDDDDDYDCPQSYGTPAVSAPTAALMKVRSQRTHVQGTGAALFFASTNYDNFKRVVPIGGLLPRPFARQDLSVIPNHMPHLRSDGAMTRRMRRVGNAGWSTLHATATALTTLESVADGLALSAETTPRVGSEPVRLSVPRLKDEELIPELI,not soluble
11,MGNTATEFDGPYVITPISGQSTAYWICDNRLKTTSIEKLQVNRPEHCGDLPETKLSSEIKQIMPDTYLGIKKVVALSDVHGQYDVLLTLLKKQKIIDSDGNWAFGEGHMVMTGDIFDRGHQVNEVLWFMYQLDQQARDAGGMVHLLMGNHEQMVLGGDLRYVHQRYDIATTLINRPYNKLYSADTEIGQWLRSKNTIIKINDVLYMHGGISSEWISRELTLDKANALYRANVDASKKSLKADDLLNFLFFGNGPTWYRGYFSETFTEAELDTILQHFNVNHIVVGHTSQERVLGLFHNKVIAVDSSIKVGKSGELLLLENNRLIRGLYDGTRETLQENSLNQ,soluble
12,TSSDTQNNKTLAAMKNFAEQYAKRTDTYFCSDLSVTAVVIEGLARHKEELGSPLCPCRHYEDKEAEVKNTFWNCPCVPMRERKECHCMLFLTPDNDFAGDAQDIPMETLEEVKASMA,soluble
13,MVRKGRQHTEEALQEPRADRDRDVPNHIRGQAEQGVGARALQEGRGERAPQDTPAARGGRARGEGAREGEDYIARWEKPPRHHRQGDNGGARQDQARAGEVPLDLLILILIGP,soluble
14,MTEYNNNFDRELGWDDEITQDSVGFVQLVPGDYQFTVTNMERARHTPNPKSPGKLPACNKAVVTIQIETSEGIAQLTHNLFLHTTTEGMLSAFFGAIGQKKHGEPLKMNWNTVIGAKGVARINKRKGTGDYADREYDNIKSMIYADEVDWTKVLNKDVAQPQQMTHQQSAQPTYQGQQAQGTNFAQQPATQSYQQGQMQTPQQPQGGWGGF,not soluble
15,QFMKPFISEKSSKSLEIPLGFNEYFPAPFPITVDLLDYSGRSWTVRMKKRGEKVFLTVGWENFVKDNNLEDGKYLQFIYDRDRTFYVIIYGHNMCS,not soluble
16,MSRTYDLASDVIRRVYERRIDAPAILDSASEFPNAAKFTNAWRDIRDEALGVHLGKVPRFHDIMPEQADISANDGLDWRMFVLKAYDMAVPENLARMPVLSRLLAECPEVKSAAISFLAPRKHIPSHRGPFRGIMRFHLGLVIPRQADGRPATIMMIDHQEKRITDGEGMLWDDTYPHEVMNNADETRIALLLDVWRPGMPWDMEMLSRLIVRGVQAGMRRRGVSFSGLEHHHHHH,soluble
17,MRLSISLGESPCISSLKVRGFTASPQTPNLSISVIVTAFNRREYLRYALLSLKNQEADSFEVVVSKNFSDRVTDKFCSENGFINVTTDSSRSGERVYDALRSSHGDFILFLDDDDIFRRTKISRVSDVISKRNVAFYRNAIFPVTVDGVIATHYQPQMHDPLYLILERVSDVRLLHRHACDFNSSSMGISRSMLDSHASDLRKINLAVDTFYFALAASSRMPLFCDSMIESIYRIMPSSTSRDLRDFYLFSRFERSFLRRYVPDLERIAEIVEGSPAKPVIGRMLSLYKILQYVFEEDRVNLKPSPLDRVRFLLERPFPYSLLYSRIFRDAAMRSEFRRENRIVYGNADRRRRLEHHHHHH,soluble
18,MGSDKIHHHHHHMQDDRLFPYGHARGAGWREALSSALEMAGPRVRGGTLGFLYVTDSFESDLPDILSAVREQTGVPHWTGCVGAGICATAQEYLDEPALAFMVTDFPETEFRLFAGMGPYRTGKSWPTGPGRPPYFAIVHGDSQTPDLPDLVRDFAGQMGSGFITGGICSSRTDGAQLVDEVVHGGLSGVTFSENIAVATRLTQGCSPIGPIHHINEAHNNVISRLDDRPALDVFNDETCDILSRDLQRAAGFIFVAMPVKNDDRGDYMVRTLVGIDIERKLLAIGEYAEAGQSLMFCKRDSGTAGEDLERMLSDISRLADGRKIRGGLYFTCVWRGQNLFGPDSAELRMIRDGLGDFPLVGFFANAEISHDKIYGYTGVLTLFLDAPTS,not soluble
19,MSLRSVVSFNEGWSFHEGFGQRLLENFDAAKPVSLPHTAVELPFNYFDEKSYQRAFTYQKVLRWLPEFEGREVSLVFDAAMADSVVYLNGEEITAHKDGYTPFEARLTGKLLKGENLVTVKIDGSENPAIPPFGGRIDYLTYAGIYRDVWLKVTDPVSIRNLKIETADVLAPHKSASIRVDLANPEGRSFSATLTAALKQADGTVIATAATETIGNRTTLSLGGLTGITLWDITNPTLYEVTVELRTEHGSDRLSTRFGFRTAEFTPEGFLLNGKPLKLRGLNRHQAFPYVGYAAGRSAQERDADIMKSVLKCNIVRTSHYPQSKWFLDRCDAIGLLVFEEIPGWQHIGDADWQKESIENVRRMIERDWNHPSIIIWGVRINESQDSHDFYAETNRLARELDSTRQTGGVRYITESELLEDVYTMNDFILGNEELPGANRPRTVLRGQQENTGLSRKVPYLITEFNGHMHPTKIYDQEQRQAEHVRRHLEVLNAAYGDPDISGAIGWCMFDYNTHKDFGSGDRVCYHGVMDMFREPKFAAYAYISQCEPSEEIVMKPVTFWARGERNIGGVLPLIILTNCDEVELQYGALSKRVGPDRENYPHLPHPPVVLDHRHFTADELGTWGLEWIDGALTGFIAGEAVVSLNLAADPLPTTLEMVADSSTLKTRERDSTRVIIRALDQCGQRLPFMNDSISLKVHGPARIVGPTNVPLQGGTSGFWLEATGLVGEITVEAVSSRFAPVTLNVTAVAEGHHHHHH,soluble
20,MLDVQHSKFGFTKGCIIAVFLLSLSRTLNRGQLSLDRFKFWQPTSQLLALDMCLCDASALEHHHHHH,not soluble
21,MSKGFAFKPSALAAKADKLWSDSKTEYTATHSTINHVHLEKKSLGDIIPKSADAPVANEKEVEEAPQAFVFGSKISDRVVNKEGDSTKPGGSDEKTMTATELFQNAVKKDDDKNGAKNFRKEAEQEAERAKEAEKQHAGTSSVEITTGEENDTNIFQAPCKIWAFDKLKNAYSEKGVCNLRINKRVENGLTHHRIVARTSSGTLRVIINSKIFSDMLLERVDKRIRISAMGPEISGVQIFLLKIGFTKTETIPDSDIFYNIMSDLLKLEKGENSRKRKADCDLNASTVKIKDGKEEEEGDQDQVDEGFVIVNKPTEDEVKEEKPAVTAAEESASSSTPSE,not soluble
